B1: NCK2 (parent)
chain: YVERKNSLKKGSLVKNLKDTLGLG

Variants of: B1
Assay: protein stability index of a GFP-peptide fusion (GPS, HEK-293T) (PSI 1-6); higher = more stable
Conditions: c terminus: a fixed tail appended
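Note: lentivirally expressed fusions sorted by FACS into six bins by GFP to DsRed ratio, PSI derived from sequencing read proportions per bin multiplied by bin number.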

Protein stability index of substitutions, site by site:
L13: W 2.04; K 2.38; G 2.41; H 2.29; Y 2.52; D 2.8; M 2.22; S 2.54; R 1.99; E 2.87; A 3.01; T 2.63; F 1.86; C 1.97; I 2.13; Q 2.64; P 3.05; N 2.44; V 2.64
K5: C 1.75; N 2.4; W 2.57; S 2.24; R 2.52; D 2.26; P 1.89; I 1.99; L 1.51; F 2.58; E 2.92; A 2.12; V 2.2; Y 2.84; T 2.02; M 1.79; Q 2.39; H 2.13; G 2.34
K18: Q 2.48; I 2.84; G 1.84; H 2.6; M 1.72; W 1.8; Y 2.41; E 2.46; P 2.56; R 2.46; A 2.25; D 2.39; N 2.3; F 1.33; V 2.42; L 2.08; S 2.07; C 2.94; T 2.65
Y1: R 3.18; W 2.29; V 3.41; P 3.8; T 3.65; S 3.3; Q 4.01
N16: D 2.29; M 1.3; R 1.98; Q 1.97; C 2.1; G 2.3; H 2.28; V 1.83; E 2.73; A 2.33; S 2.16; T 2.41; K 2.04; W 1.68; L 2.14; I 2.18; F 2.69; P 2.61; Y 1.89
R4: T 1.78; H 2.6; K 2.46; Q 2.2; F 1.52; I 1.81; N 2.48; W 1.57; D 2.67; L 1.57; C 1.83; M 1.62; V 1.78; Y 1.33; G 2.19; E 2.42; A 2.23; S 2.26; P 2.2
E3: R 2.52; S 2.23; I 2.1; D 1.89; K 2.23; C 1.83; G 1.41; F 2.01; P 1.65; Y 1.63; Q 1.96; T 1.78; A 1.66; V 1.9; M 2.11; H 1.72; N 2.04; W 1.96; L 2.07
L8: S 1.99; D 2.92; K 2.47; F 2.33; A 2.42; V 2.16; P 2.8; R 2.09; C 2.41; Y 2.14; T 2.58; Q 2.88; N 2.55; M 2.57; I 2.27; E 2.96; W 1.89; H 3.11; G 3.27
S12: P 2.31; I 2.46; E 2.4; H 1.98; L 1.64; C 2.13; F 2.53; D 2.79; W 2.17; K 2.71; G 2.07; V 2.38; Y 2.19; Q 2.27; N 2.63; A 2.22; T 2.01; R 2.22; M 1.75
V14: T 2.66; D 2.84; Y 1.98; R 2.6; K 2.25; S 2.07; C 2.08; F 1.96
